In patent US7598032B2, “Thermostable DNA polymerases incorporating nucleoside triphosphates labeled with fluorescent dyes” (Roche Molecular Systems, priority 1997, dated 2009):

B1: G46D F667Y E681K Taq: thermostable Taq DNA polymerase with G46D, F667Y and E681K mutations, encoded by plasmid pLK113 (protein, UniProt P19821 1-832, looked up, variant G46D F667Y E681K)
DNA polymerase I, thermostable: MRGMLPLFEPKGRVLLVDGHHLAYRTFHALKGLTTSRGEPVQAVYDFAKSLLKALKEDGDAVIVVFDAKAPSFRHEAYGGYKAGRAPTPEDFPRQLALIKELVDLLGLARLEVPGYEADDVLASLAKKAEKEGYEVRILTADKDLYQLLSDRIHVLHPEGYLITPAWLWEKYGLRPDQWADYRALTGDESDNLPGVKGIGEKTARKLLEEWGSLEALLKNLDRLKPAIREKILAHMDDLKLSWDLAKVRTDLPLEVDFAKRREPDRERLRAFLERLEFGSLLHEFGLLESPKALEEAPWPPPEGAFVGFVLSRKEPMWADLLALAAARGGRVHRAPEPYKALRDLKEARGLLAKDLSVLALREGLGLPPGDDPMLLAYLLDPSNTTPEGVARRYGGEWTEEAGERAALSERLFANLWGRLEGEERLLWLYREVERPLSAVLAHMEATGVRLDVAYLRALSLEVAEEIARLEAEVFRLAGHPFNLNSRDQLERVLFDELGLPAIGKTEKTGKRSTSAAVLEALREAHPIVEKILQYRELTKLKSTYIDPLPDLIHPRTGRLHTRFNQTATATGRLSSSDPNLQNIPVRTPLGQRIRRAFIAEEGWLLVALDYSQIELRVLAHLSGDENLIRVFQEGRDIHTETASWMFGVPREAVDPLMRRAAKTINYGVLYGMSAHRLSQKLAIPYEEAQAFIERYFQSFPKVRAWIEKTLEEGRRRGYVETLFGRRRYVPDLEARVKSVREAAERMAFNMPVQGTAADLMKLAMVKLFPRLEEMGARMLLQVHDELVLEAPKERAEAVARLAKEVMEGVYPLAVPLEVEVGIGEDWLSAKE

What was measured:
[1] = target: T1, Thermus aquaticus (Taq) DNA polymerase variant G46D F667Y (Thermus aquaticus, UniProt P19821, F667Y/G46D); experiment: Limiting template primer extension competition assay (ddNTP incorporation), G46D F667Y Taq; assay type: biochemical
T1 construct: Expression vector pRDA3-2 contains the full-length Taq DNA polymerase gene; made in house; host or cells: E. coli DG116 (stated generally for the polymerases of the invention)
T1 sequence (P19821 whole entry G46D/F667Y): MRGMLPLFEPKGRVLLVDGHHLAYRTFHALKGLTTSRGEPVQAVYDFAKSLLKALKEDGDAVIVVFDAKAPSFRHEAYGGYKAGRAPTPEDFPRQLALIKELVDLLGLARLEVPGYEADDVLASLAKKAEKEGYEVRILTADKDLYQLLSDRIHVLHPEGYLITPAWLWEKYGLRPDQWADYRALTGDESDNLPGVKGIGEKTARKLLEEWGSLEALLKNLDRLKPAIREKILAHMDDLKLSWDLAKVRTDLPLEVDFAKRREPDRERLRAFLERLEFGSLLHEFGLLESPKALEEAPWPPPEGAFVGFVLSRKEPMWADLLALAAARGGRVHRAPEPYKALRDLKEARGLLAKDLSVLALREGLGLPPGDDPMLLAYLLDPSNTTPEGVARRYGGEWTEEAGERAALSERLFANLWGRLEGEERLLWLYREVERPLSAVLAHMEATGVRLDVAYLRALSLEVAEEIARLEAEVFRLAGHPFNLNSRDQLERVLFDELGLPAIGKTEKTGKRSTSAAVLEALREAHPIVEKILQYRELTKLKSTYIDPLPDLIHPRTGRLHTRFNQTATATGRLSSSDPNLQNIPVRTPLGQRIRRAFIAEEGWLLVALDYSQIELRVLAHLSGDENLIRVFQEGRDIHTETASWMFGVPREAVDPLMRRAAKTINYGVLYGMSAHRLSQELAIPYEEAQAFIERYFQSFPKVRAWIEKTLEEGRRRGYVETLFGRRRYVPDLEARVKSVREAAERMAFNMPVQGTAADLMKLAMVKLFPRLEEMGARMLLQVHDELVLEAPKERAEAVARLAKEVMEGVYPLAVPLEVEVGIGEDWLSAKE
Protocol: The ability of the enzymes of this invention to efficiently incorporate nucleotides labeled with fluorescein family dyes is measured by ddNTP incorporation assays. One such assay is a primer extension competition assay conducted under conditions of limiting template. In this assay, a primer DG48 (5′-[…]), (SEQ ID NO: 11), bound to M13 mp18 template (Innis et al., 1988, Proc. Natl. Acad. Sci. USA 85:9436) is extended in the presence of [α-^33P]dCTP and excess enzyme with various levels of a fluorescently labeled ddNTP, Zowie-ddCTP. Because the incorporation of a ddCTP residue terminates the extension reaction, the more readily a DNA polymerase incorporates a ddCTP into an extended primer, the less [α-^33P]dCTP can be incorporated. Thus, as the efficiency of fluorescently labeled ddCTP incorporation increases, the extent of inhibition of DNA synthesis is increased. The reactions were also performed with various levels of an unlabeled ddCTP. […]
The relative abilities of G46D F667Y Taq, G46D F667Y E681K Taq and F730Y Tma30 DNA polymerases to incorporate a fluorescein dye family-labeled ddCTP were compared by use of a limiting template, primer extension competition assay. […] In this competition assay, because the incorporation of a ddCTP terminates the extension reaction, the more readily the polymerase incorporates a ddCTP into an extended primer, the less [α-^33P]dCTP can be incorporated. […]

[2] = tested on: M13 mp18 single-strand DNA template; experiment: Cycle sequencing with fluorescein labeled ddNTPs (dye-terminator sequencing); assay type: biochemical
Protocol: The fluorescein dye labeled dideoxy terminators are reagents from the Applied Biosystems PRISM Sequenase® Terminator Sequencing Kits (Perkin-Elmer, Norwalk, Conn.) and were optimized for use with Sequenase DNA polymerase and alpha-thio dNTPs. Cycle sequencing reactions were performed in a 20 μl volume containing 50 mM Tris-HCl (pH 8.8), 2.0 mM MgCl2, 100 μM each dATP, dCTP, and dTTP (Perkin-Elmer, Norwalk, Conn.), 500 μM dITP (Pharmacia Biotech, Piscataway, N.J.), 0.2 μM13 mp18 single-strand DNA template (Perkin-Elmer), 0.15 μM LacZ Forward Primer (Perkin-Elmer), 5 units of G46D F667Y E681K Taq DNA polymerase, 20 units of rTth Thermostable Pyrophosphatase (U.S. Ser. No. 08/528,384), 0.05 μM Sequenase A Dye Terminator, 0.80 μM Sequenase C Dye Terminator, 0.08 μM Sequenase G Dye Terminator, and 1.0 μM Sequenase T Dye Terminator. All four Sequenase Dye Terminators were purchased from Perkin-Elmer. Reactions were placed in a preheated (75° C.) Perkin-Elmer GeneAmp® PCR System 9600 thermal cycler and subjected to 25 cycles of 96° C. for 10 seconds, 50° C. for 5 seconds, and 60° C. for 4 minutes. Dye labeled fragments were purified with Centri-Sep™ columns (Princeton Separations, Adelphia, N.J.) following the manufacturer's instructions and dried in a vacuum centrifuge. Pellets were resuspended in 6 μl of deionized formamide:50 mg/mL Blue dextran (in 25 mM EDTA, pH 8.0) 5:1 (v/v), heated at 90° C. for 3 minutes, and directly loaded onto a pre-electrophoresed 4% polyacrylamide/6 M urea gel and electrophoresed and analyzed on a Perkin-Elmer ABI PRISM' 377 DNA Sequencer according to the manufacturer instructions (ABI PRISM 377 DNA Sequencer User's Manual).

Row | Molecule | IC50 [1] | accuracy of automated base-calling ([2]; for 450 bases, ABI PRISM 377 DNA Sequencer, 1 μM or less ddNTP) | base-calling errors ([2]; for bases +10 to +460 from primer) | sequencing ladder with fluorescein dye family-labeled ddNTPs ([2]; sequencing reaction with fluorescein dye family-labeled ddNTPs)
1 | Nc1ccn([C@H]2CC[C@@H](COP(=O)(O)OP(=O)(O)OP(=O)(O)O)O2)c(=O)n1 [ddCTP] | 56 nM | – | – | –
2 | B1 | – | greater than 98.5% | 6 errors | readable sequencing ladder
